Legend:
[1] = substrate: CCCC(=O)CC(=O)SCCNC(=O)CCNC(=O)[C@H](O)C(C)(C)COP(=O)(O)OP(=O)(O)OC[C@H]1O[C@@H](n2cnc3c(N)ncnc32)[C@H](O)[C@@H]1OP(=O)(O)O; test: thiolysis, decrease in A303 of Mg-keto-acyl-CoA complex, Michaelis-Menten fit; type: biochemical, Cupriavidus necator; conditions: C6 thiolysis, 200 μM CoASH, 10 mM MgCl2, 100 mM Tris pH 7.0
[2] = substrate: CC(=O)CC(=O)SCCNC(=O)CCNC(=O)[C@H](O)C(C)(C)COP(=O)(O)OP(=O)(O)OC[C@H]1O[C@@H](n2cnc3c(N)ncnc32)[C@H](O)[C@@H]1OP(=O)(O)O; test: as above; type: biochemical, Cupriavidus necator; conditions: C4 thiolysis, 200 μM CoASH, 10 mM MgCl2, 100 mM Tris pH 7.0

Protein | Km [1] [µM] | kcat [1] [s⁻¹] | kcat/Km [1] [M⁻¹ s⁻¹] | Km [2] [µM] | kcat [2] [s⁻¹] | kcat/Km [2] [M⁻¹ s⁻¹]
BktB (Cupriavidus necator H16; M158A) (protein) MTREVVVVSGVRTAIGTFGGSLKDVAPAELGALVVREALARAQVSGDDVGHVVFGNVIQTEPRDMYLGRVAAVNGGVTINAPALTVNRLCGSGLQAIVSAAQTILLGDTDVAIGGGAESMSRAPYLAPAARWGARMGDAGLVDMMLGALHDPFHRIHAGVTAENVAKEYDISRAQQDEAALESHRRASAAIKAGYFKDQIVPVVSKGRKGDVTFDTDEHVRHDATIDDMTKLRPVFVKENGTVTAGNASGLNDAAAAVVMMERAEAERRGLKPLARLVSYGHAGVDPKAMGIGPVPATKIALERAGLQVSDLDVIEANEAFAAQACAVTKALGLDPAKVNPNGSGISLGHPIGATGALITVKALHELNRVQGRYALVTMCIGGGQGIAAIFERI | 17 | 16.7 | 982000 | 14.1 | 4.63 | 328000
BktB (Cupriavidus necator H16) (protein) MTREVVVVSGVRTAIGTFGGSLKDVAPAELGALVVREALARAQVSGDDVGHVVFGNVIQTEPRDMYLGRVAAVNGGVTINAPALTVNRLCGSGLQAIVSAAQTILLGDTDVAIGGGAESMSRAPYLAPAARWGARMGDAGLVDMMLGALHDPFHRIHMGVTAENVAKEYDISRAQQDEAALESHRRASAAIKAGYFKDQIVPVVSKGRKGDVTFDTDEHVRHDATIDDMTKLRPVFVKENGTVTAGNASGLNDAAAAVVMMERAEAERRGLKPLARLVSYGHAGVDPKAMGIGPVPATKIALERAGLQVSDLDVIEANEAFAAQACAVTKALGLDPAKVNPNGSGISLGHPIGATGALITVKALHELNRVQGRYALVTMCIGGGQGIAAIFERI | 15.2 | 4.06 | 267000 | 17.5 | 148 | 8.45e+06

— paper PMC6131064
